{
  "source": "patent US20170129926A1",
  "about": "(ABCLON, published 2017)",
  "binders": {"B1": {"name": "tocilizumab (antibody, V domains shown)", "VH": "QVQLQESGPGLVRPSQTLSLTCTVSGYSITSDHAWSWVRQPPGRGLEWIGYISYSGITTYNPSLKSRVTMLRDTSKNQFSLRLSSVTAADTAVYYCARSLARTTAMDYWGQGSLVTVSS", "VL": "DIQMTQSPSSLSASVGDRVTITCRASQDISSYLNWYQQKPGKAPKLLIYYTSRLHSGVPSRFSGSGSGTDFTFTISSLQPEDIATYYCQQGNTLPYTFGQGTKVEIKR"}},
  "assay_in_all_cases": "cell-based or functional assay",
  "key": {"[1]": {"target": "T1, cell surface IL-6 receptor (TF-1 cells) (human, UniProt P08887 20-468)", "T1 sequence (looked up)": "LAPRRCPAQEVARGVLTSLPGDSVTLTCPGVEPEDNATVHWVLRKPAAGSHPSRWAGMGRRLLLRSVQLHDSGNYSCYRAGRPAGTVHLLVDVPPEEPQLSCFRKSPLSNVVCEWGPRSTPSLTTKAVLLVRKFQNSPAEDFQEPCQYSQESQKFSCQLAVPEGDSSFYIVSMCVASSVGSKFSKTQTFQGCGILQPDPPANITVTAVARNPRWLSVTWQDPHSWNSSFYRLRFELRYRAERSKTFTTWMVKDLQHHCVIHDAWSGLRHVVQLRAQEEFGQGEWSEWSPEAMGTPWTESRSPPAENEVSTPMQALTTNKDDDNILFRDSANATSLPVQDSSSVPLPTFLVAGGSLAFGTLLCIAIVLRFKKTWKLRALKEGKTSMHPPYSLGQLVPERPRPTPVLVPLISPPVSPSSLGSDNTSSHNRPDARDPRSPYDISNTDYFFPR"}, "human IL-6Rα": {"target": "T2, human IL-6Rα (human, UniProt P08887 20-358)", "T2 sequence (looked up)": "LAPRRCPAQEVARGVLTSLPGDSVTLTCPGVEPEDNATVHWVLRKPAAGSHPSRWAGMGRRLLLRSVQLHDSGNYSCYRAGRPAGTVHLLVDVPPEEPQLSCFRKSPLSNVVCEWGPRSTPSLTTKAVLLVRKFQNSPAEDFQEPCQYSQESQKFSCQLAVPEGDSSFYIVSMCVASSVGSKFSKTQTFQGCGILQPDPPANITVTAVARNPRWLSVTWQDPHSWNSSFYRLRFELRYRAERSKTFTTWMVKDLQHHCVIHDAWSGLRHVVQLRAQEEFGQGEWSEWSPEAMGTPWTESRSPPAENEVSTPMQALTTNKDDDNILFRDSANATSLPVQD"}, "[2]": {"target": "T1, cell surface IL-6 receptor (TF-1 cells)", "remark": "listed apart in the source"}},
  "note": "Like-named read-outs stand apart in the source and are kept apart here.",
  "data": [
    {"binder": "B1", "values": [
      {"measurement": "IC50, IL-6 dependent growth of TF-1 cells", "setting": "[1]", "value": 410, "unit": "pM"},
      {"measurement": "IC50, IL-6 trans-signaling (MCP-1 secretion by HUVECs)", "setting": "human IL-6Rα", "value": "~5000", "unit": "pM"},
      {"measurement": "IC50, IL-6 dependent growth of TF-1 cells", "setting": "[2]", "value": 300, "unit": "pM"}
    ]}
  ]
}
